Measured values reported in patent US20260049143A1 (KYMAB, published 2026).

What was measured:
[1] = target: T1, human ICOS-mFc (Chimerigen) (human, UniProt Q9Y6W8 21-140, limits assumed); assay: HTRF neutralisation of human B7-H2 binding to human ICOS-mFc, n1
T1 construct: Bought fusion; also called hICOS; recombinant human ICOS protein; not shown: mouse Fc
T1 sequence: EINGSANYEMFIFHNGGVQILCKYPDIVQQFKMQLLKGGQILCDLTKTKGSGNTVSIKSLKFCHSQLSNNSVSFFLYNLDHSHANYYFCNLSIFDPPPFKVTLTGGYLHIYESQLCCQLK
Method: (§1) 5 μl of human ICOS-mFc (Chimerigen) at 20 nM (5 nM final) or 5 μl of mouse ICOS-mFc (Chimerigen) at 4 nM (1 nM final) were added to relevant assay wells. Plate was incubated for 1 hour (hr) at room temperature (RT).
(§2) After incubation, assay was read on Envision plate reader (Perkin Elmer) using a standard HTRF protocol. 620 nm and 665 nm channel values were exported to Microsoft Excel and % Delta-F and % Neutralisation calculations performed. Titration curves and IC50 values [M] were plotted using Graphpad (Prism). IC50 values were calculated by first transforming the data using equation X=Log(X). The transformed data was then fitted using nonlinear regression, using fitting algorithm, log (inhibitor) vs. response-variable slope (four parameters).

[2] = target: T2, mouse ICOS-mFc (Chimerigen) (mouse, UniProt Q9WVS0 21-141, limits assumed); assay: DELFIA ELISA, coated mouse ICOS-mFc, N=2
T2 construct: Bought fusion; also called mICOS; recombinant mouse ICOS protein; not shown: mouse Fc
T2 sequence: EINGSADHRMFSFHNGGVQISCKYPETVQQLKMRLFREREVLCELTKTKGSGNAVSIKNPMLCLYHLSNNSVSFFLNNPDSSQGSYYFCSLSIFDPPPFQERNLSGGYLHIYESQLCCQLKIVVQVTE
Method: (§3) Recombinant ICOS proteins, human ICOS-mFc or mouse ICOS-mFc (Chimerigen) were diluted in 1×PBS and added to Black Hi-bind plates (Griener) at 1 μg/ml, 50 μl/well. Recombinant PD-L1 proteins, human PD-L1-Flag-His or mouse-His were diluted in 1×PBS and added to Black Hi-bind plates (Griener) at 4 μg/ml, 50 μl/well. The plates were left overnight at 4° C. The next day plates were washed 3× with 300 μl/well of 1×PBS+0.1% Tween and blocked with 200 μl/well of 1×PBS+1% BSA blocking buffer for 1 hr at RT on a plate shaker. Plates were washed 3× with 300 μl/well of 1×PBS+0.1% Tween.
(§4) However, human-PD-L1 mAb² antibodies were diluted in 1×PBS+0.1% BSA buffer and diluted 1 in 2 from a starting working concentration of 0.066 μM over an 11 point titration. Titrated antibodies were added to the plates, 50 μl/well and left to incubate for 1 hr at R.T on a plate shaker. Plates were washed 3× with 300 μl/well of 1×PBS+0.1% Tween.
(§5) DELFIA® Eu-labelled Anti-human IgG(Perkin-Elmer) was diluted 1:500 in DELFIA Assay buffer (Perkin-Elmer) and added to the assay plate (50 μl/well), left to incubate for 1 hr at RT on a plate shaker. […] After incubation, assay was read on Envision plate reader (Perkin Elmer), Time-resolved fluorescence (TRF) was measured at 615 nm.

[3] = target: T2, mouse ICOS-mFc (Chimerigen); assay: HTRF neutralisation of mouse B7-H2 binding to mouse ICOS-mFc, n1
Method: as §1, §2

[4] = target: T1, human ICOS-mFc (Chimerigen); assay: DELFIA ELISA, coated human ICOS-mFc, N=3
Method: as §3, §4, §5

[5] = target: T3, Biotinylated human ICOS protein (human, UniProt Q9Y6W8 21-140, limits assumed, biotinylated); assay: avidity SPR (ProteOn), biotinylated hICOS on NLC chip, antibody analyte
T3 sequence: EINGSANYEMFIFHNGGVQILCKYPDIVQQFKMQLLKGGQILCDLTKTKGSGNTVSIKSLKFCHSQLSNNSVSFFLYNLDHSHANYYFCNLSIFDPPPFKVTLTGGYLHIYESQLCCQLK
Method: Biotinylated human ICOS protein diluted at 7.5 μg/mL in running buffer (1×HBS-EP+Buffer Technova, cat. No. H8022) was captured on a NLC sensor chip (Bio-Rad, cat No 1765021). The surface was then blocked using biocytin (Sigma Aldrich, cat No B1758) at 1 mg/mL.
The assay was carried out at 25° C.
The buffer injection (i.e. 0 nM) was used to double reference the sensorgrams. The analysis was carried out using the equilibrium model inherent to the ProteOn's analysis software for each mAb² construct.

[6] = target: T4, mouse ICOS expressed on CHO cells (mouse, UniProt Q9WVS0 21-141); assay: flow cytometry, CHO mouse ICOS cells, anti-human IgG AF647, mean
T4 construct: the cell-expressed form may differ; also called mICOS; CHO mouse ICOS
T4 sequence: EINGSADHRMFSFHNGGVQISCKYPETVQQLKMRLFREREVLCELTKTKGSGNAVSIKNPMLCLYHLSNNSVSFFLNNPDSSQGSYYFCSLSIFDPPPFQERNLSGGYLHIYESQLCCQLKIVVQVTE
Method: (§6) CHO-S cells transfected with either human ICOS or mouse ICOS were resuspended in FACS buffer (PBS+1% w/v BSA+0.1% w/v sodium azide) and transferred to a 96-well V-bottom plate (Greiner) at a density of 1×10⁵ cells per well. mAb and mAb² were titrated in FACS buffer, 1 in 3 dilution across 11 points from a starting working concentration of 400 nM. Plates were centrifuged at 300×g for 3 minutes, supernatant discarded and 50 μL mAb or mAb² solution were added to cells and incubated at 4° C. for 1 hour. Cells were washed with 150 μL of PBS and centrifuged at 300×g for 3 minutes, supernatant was discarded and cell pellet resuspended in 150 μL PBS added. This wash step was repeated twice. […] Cells were incubated for 1 hour at 4° C. in the dark. Cells were washed with 150 μL of PBS and centrifuged at 300 g for 3 minutes, supernatant was discarded and cell pellet resuspended in 150 μL PBS added. This wash step was repeated twice. Cells were fixed with 25 μL 4% v/v paraformaldehyde, incubated for 20 minutes at 4° C., cells were pelleted by centrifugation at 300×g and the supernatant discarded. Cells were washed with 150 μL of PBS and centrifuged at 300 g for 3 minutes, supernatant was discarded and cell pellet resuspended in 150 μL PBS added. This wash step was repeated. Pelleted cells were resuspended in 110 μL 1×PBS.

[7] = target: T4, mouse ICOS expressed on CHO cells; assay: flow cytometry, CHO mouse ICOS cells, anti-human IgG AF647, N=2
Method: as §6

[8] = target: T1, human ICOS-mFc (Chimerigen); assay: DELFIA ELISA, coated human ICOS-mFc, N=2
Method: as §3, §4, §5

[9] = target: T2, mouse ICOS-mFc (Chimerigen); assay: DELFIA ELISA, coated mouse ICOS-mFc, mean (only N=1 kept)
Method: as §3, §4, §5

B1: STIM003_457 (bispecific antibody, V domains shown, not shown: a dimerising Fc or GST)
VH: EVQLVESGGGVVRPGGSLRLSCVASGVTFDDYGMSWVRQAPGKGLEWVSGINWNGGDTDYSDSVKGRFTISRDNAKNSLYLQMNSLRAEDTALYYCARDFYGSGSYYHVPFDYWGQGILVTVSS
VL: EIVLTQSPGTLSLSPGERATLSCRASQSVSRSYLAWYQQKRGQAPRLLIYGASSRATGIPDRFSGDGSGTDFTLSISRLEPEDFAVYYCHQYDMSPFTFGPGTKVDIK
notes: mAb^2 IgG1; also called ST1M003_457; STIM003_457 mAb^2
Question: How did the IC50 [1] turn out when B1 was run?
Answer: 0.44 nM

Question: What about the EC50 [2] of the same binder?
Answer: 0.252 nM

Question: And the IC50 [3]?
Answer: 0.087 nM

Question: What about the EC50 [4] of the same binder?
Answer: 0.401 nM

Question: What about the koff [5] of the same binder?
Answer: 0.000244 s⁻¹

Question: And the EC50 [6]?
Answer: 10.6 nM

Question: And the EC50 [7]?
Answer: 11 nM

B2: STIM001_457 (bispecific antibody, V domains shown, not shown: a dimerising Fc or GST)
VH: QVQVVQSGAEVKKPGASVKVSCKASGYTFSTFGITWVRQAPGQGLEWMGWISAYNGDTNYAQNLQGRVIMTTDTSTSTAYMELRSLRSDDTAVYYCARSSGHYYYYGMDVWGQGTTVTVSS
VL: DIVMTQSPLSLPVTPGEPASISCRSSQSLLHSNEYNYLDWYLQKPGQSPQLLIFLGSNRASGVPDRFSGSGSGTDFTLKITRVEAEDVGIYYCMQSLQTPLTFGGGTKVEIK
notes: mAb^2 IgG1; also called STIM001_457 mAb^2
Question: What does the source list for B2?
Answer: IC50 [1]: 1.1 nM; IC50 [3]: 3.39 nM; EC50 [4]: 9.17 nM; EC50 [8]: 15.3 nM; koff [5]: 0.000346 s⁻¹; EC50 [6]: 5.21 nM; EC50 [9]: 23.6 nM; EC50 [7]: 3.53 nM
